Data on four variants can be found in IntAct's records for PubMed 31515488.

To fix the notation:
B1: Zinc finger protein 165 (Homo sapiens), P49910 (parent)
chain: MATEPKKAAAQNSPEDEGLLIVKIEEEEFIHGQDTCLQRSELLKQELCRQLFRQFCYQDSPGPREALSRLRELCCQWLKPEIHTKEQILELLVLEQFLTILPGDLQAWVHEHYPESGEEAVTILEDLERGTDEAVLQVQAHEHGQEIFQKKVSPPGPALNVKLQPVETKAHFDSSEPQLLWDCDNESENSRSMPKLEIFEKIESQRIISGRISGYISEASGESQDICKSAGRVKRQWEKESGESQRLSSAQDEGFGKILTHKNTVRGEIISHDGCERRLNLNSNEFTHQKSCKHGTCDQSFKWNSDFINHQIIYAGEKNHQYGKSFKSPKLAKHAAVFSGDKTHQCNECGKAFRHSSKLARHQRIHTGERCYECNECGKSFAESSDLTRHRRIHTGERPFGCKECGRAFNLNSHLIRHQRIHTREKPYECSECGKTFRVSSHLIRHFRIHTGEKPYECSECGRAFSQSSNLSQHQRIHMRENLLM
partner: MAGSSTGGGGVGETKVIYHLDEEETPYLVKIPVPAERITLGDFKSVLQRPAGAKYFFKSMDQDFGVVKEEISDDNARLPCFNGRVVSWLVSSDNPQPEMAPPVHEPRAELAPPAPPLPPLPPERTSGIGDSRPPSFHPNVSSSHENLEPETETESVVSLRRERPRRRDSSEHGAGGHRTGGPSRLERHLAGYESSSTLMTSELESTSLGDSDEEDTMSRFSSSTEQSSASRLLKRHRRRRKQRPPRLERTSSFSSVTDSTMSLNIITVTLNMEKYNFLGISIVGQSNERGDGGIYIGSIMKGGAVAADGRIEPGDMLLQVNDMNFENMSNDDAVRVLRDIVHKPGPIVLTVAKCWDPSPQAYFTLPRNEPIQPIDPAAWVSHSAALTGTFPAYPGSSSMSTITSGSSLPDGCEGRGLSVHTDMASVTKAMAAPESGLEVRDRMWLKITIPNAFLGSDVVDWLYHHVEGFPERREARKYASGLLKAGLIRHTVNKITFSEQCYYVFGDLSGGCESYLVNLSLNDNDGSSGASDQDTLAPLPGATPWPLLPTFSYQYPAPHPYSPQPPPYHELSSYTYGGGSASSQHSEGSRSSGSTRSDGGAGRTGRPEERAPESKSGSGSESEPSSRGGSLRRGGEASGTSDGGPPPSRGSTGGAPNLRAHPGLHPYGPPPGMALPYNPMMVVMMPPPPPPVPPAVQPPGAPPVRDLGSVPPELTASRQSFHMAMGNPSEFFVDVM
B2: Conserved oligomeric Golgi complex subunit 7 (Homo sapiens), P83436 (parent)
chain: MDFSKFLADDFDVKEWINAAFRAGSKEAASGKADGHAATLVMKLQLFIQEVNHAVEETSHQALQNMPKVLRDVEALKQEASFLKEQMILVKEDIKKFEQDTSQSMQVLVEIDQVKSRMQLAAESLQEADKWSTLSADIEETFKTQDIAVISAKLTGMQNSLMMLVDTPDYSEKCVHLEALKNRLEALASPQIVAAFTSQAVDQSKVFVKVFTEIDRMPQLLAYYYKCHKVQLLAAWQELCQSDLSLDRQLTGLYDALLGAWHTQIQWATQVFQKPHEVVMVLLIQTLGALMPSLPSCLSNGVERAGPEQELTRLLEFYDATAHFAKGLEMALLPHLHEHNLVKVTELVDAVYDPYKPYQLKYGDMEESNLLIQMSAVPLEHGEVIDCVQELSHSVNKLFGLASAAVDRCVRFTNGLGTCGLLSALKSLFAKYVSDFTSTLQSIRKKCKLDHIPPNSLFQEDWTAFQNSIRIIATCGELLRHCGDFEQQLANRILSTAGKYLSDSCSPRSLAGFQESILTDKKNSAKNPWQEYNYLQKDNPAEYASLMEILYTLKEKGSSNHNLLAAPRAALTRLNQQAHQLAFDSVFLRIKQQLLLISKMDSWNTAGIGETLTDELPAFSLTPLEYISNIGQYIMSLPLNLEPFVTQEDSALELALHAGKLPFPPEQGDELPELDNMADNWLGSIARATMQTYCDAILQIPELSPHSAKQLATDIDYLINVMDALGLQPSRTLQHIVTLLKTRPEDYRQVSKGLPRRLATTVATMRSVNY
B3: Protein Tob1 (Homo sapiens), P50616 (parent)
chain: MQLEIQVALNFIISYLYNKLPRRRVNIFGEELERLLKKKYEGHWYPEKPYKGSGFRCIHIGEKVDPVIEQASKESGLDIDDVRGNLPQDLSVWIDPFEVSYQIGEKGPVKVLYVDDNNENGCELDKEIKNSFNPEAQVFMPISDPASSVSSSPSPPFGHSAAVSPTFMPRSTQPLTFTTATFAATKFGSTKMKNSGRSNKVARTSPINLGLNVNDLLKQKAISSSMHSLYGLGLGSQQQPQQQQQPAQPPPPPPPPQQQQQQKTSALSPNAKEFIFPNMQGQGSSTNGMFPGDSPLNLSPLQYSNAFDVFAAYGGLNEKSFVDGLNFSLNNMQYSNQQFQPVMAN

Variants of B1 are the subject of one assay. The conditions noted are these: with dvl2_human DVL2, O14641.
For MATEPKKAAAQNSPEDEGLLIVKIEEEEFIHGQDTCLQRSELLKQELCRQLFRQFCYQDSPGPREALSRLRELCCQWLKPEIHTKEQILELLVLEQFLTILPGDLQAWVHEHYPESGEEAVTILEDLERGTDEAVLQVQAHEHGQEIFQKKVSPPGPALNVKLQPVETKAHFDSSEPQLLWDCDNESENSRSMPKLEIFEKIESQRIISGRISGYISEASGESQDICKSAGRVKRQWEKESGESQRLSSAQDEGFGKILTHKNTVRGEIISHDGCERRLNLNSNEFTHQKSCKHGTCDQSFKWNSDFINHQIIYAGEKNHQYGKSFKSPKLAKHAAVFSGDKTHQCYECGKAFRHSSKLARHQRIHTGERCYECNECGKSFAESSDLTRHRRIHTGERPFGCKECGRAFNLNSHLIRHQRIHTREKPYECSECGKTFRVSSHLIRHFRIHTGEKPYECSECGRAFSQSSNLSQHQRIHMRENLLM [N347Y], the “effect of a mutation on the interaction” value is “with no effect”. On the same count and under the same terms, with MATEPKKAAAQNSPEDEGLLIVKIEEEEFIHGQDTCLQRSELLKQELCRQLFRQFCYQDSPGPREALSCLRELCCQWLKPEIHTKEQILELLVLEQFLTILPGDLQAWVHEHYPESGEEAVTILEDLERGTDEAVLQVQAHEHGQEIFQKKVSPPGPALNVKLQPVETKAHFDSSEPQLLWDCDNESENSRSMPKLEIFEKIESQRIISGRISGYISEASGESQDICKSAGRVKRQWEKESGESQRLSSAQDEGFGKILTHKNTVRGEIISHDGCERRLNLNSNEFTHQKSCKHGTCDQSFKWNSDFINHQIIYAGEKNHQYGKSFKSPKLAKHAAVFSGDKTHQCNECGKAFRHSSKLARHQRIHTGERCYECNECGKSFAESSDLTRHRRIHTGERPFGCKECGRAFNLNSHLIRHQRIHTREKPYECSECGKTFRVSSHLIRHFRIHTGEKPYECSECGRAFSQSSNLSQHQRIHMRENLLM [R69C] the entry was “with no effect”.

The variants in the next assay derive from B2. The following applies: with taxb1_human TAX1BP1, Q86VP1.
taxb1_human TAX1BP1, Q86VP1, sequence (Q86VP1 whole entry): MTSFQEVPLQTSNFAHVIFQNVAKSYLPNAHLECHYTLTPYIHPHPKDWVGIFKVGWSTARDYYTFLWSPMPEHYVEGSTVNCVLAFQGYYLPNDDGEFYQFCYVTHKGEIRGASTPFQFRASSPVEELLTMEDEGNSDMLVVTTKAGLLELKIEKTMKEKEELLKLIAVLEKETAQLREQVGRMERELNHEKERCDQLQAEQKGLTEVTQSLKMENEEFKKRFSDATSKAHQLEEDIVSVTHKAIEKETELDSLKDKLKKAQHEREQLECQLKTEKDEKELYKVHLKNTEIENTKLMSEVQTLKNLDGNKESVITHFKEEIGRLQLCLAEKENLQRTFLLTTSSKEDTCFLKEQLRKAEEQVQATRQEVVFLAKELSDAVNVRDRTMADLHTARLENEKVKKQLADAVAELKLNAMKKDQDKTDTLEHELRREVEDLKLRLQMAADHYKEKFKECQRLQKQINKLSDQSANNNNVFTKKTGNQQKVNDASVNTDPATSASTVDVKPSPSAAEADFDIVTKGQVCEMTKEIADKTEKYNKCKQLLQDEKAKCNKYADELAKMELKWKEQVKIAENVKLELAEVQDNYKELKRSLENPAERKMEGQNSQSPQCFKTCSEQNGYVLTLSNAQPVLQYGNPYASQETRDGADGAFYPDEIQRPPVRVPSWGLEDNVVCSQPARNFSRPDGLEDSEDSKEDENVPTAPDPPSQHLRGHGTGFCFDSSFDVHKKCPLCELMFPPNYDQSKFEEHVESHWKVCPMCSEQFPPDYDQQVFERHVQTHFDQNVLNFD
On to Q749K, for which the “effect of a mutation on the interaction” value is given as “with no effect”.

A further assay covers variants of B3. The following applies: with cnot7_human CNOT7, Q9UIV1.
cnot7_human CNOT7, Q9UIV1, sequence (Q9UIV1 whole entry): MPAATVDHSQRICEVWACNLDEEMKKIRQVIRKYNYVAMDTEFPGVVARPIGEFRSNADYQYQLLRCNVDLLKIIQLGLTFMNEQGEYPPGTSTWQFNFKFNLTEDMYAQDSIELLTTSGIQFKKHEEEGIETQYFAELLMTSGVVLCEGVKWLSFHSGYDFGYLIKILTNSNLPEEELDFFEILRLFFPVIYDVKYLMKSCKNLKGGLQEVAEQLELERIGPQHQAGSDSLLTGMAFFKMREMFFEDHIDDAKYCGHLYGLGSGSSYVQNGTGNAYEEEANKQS
Regarding MQLEIQVALNFIISYLYNKLPRRRVNIFGEELERLLKKKYEGHWYPEKPNKGSGFRCIHIGEKVDPVIEQASKESGLDIDDVRGNLPQDLSVWIDPFEVSYQIGEKGPVKVLYVDDNNENGCELDKEIKNSFNPEAQVFMPISDPASSVSSSPSPPFGHSAAVSPTFMPRSTQPLTFTTATFAATKFGSTKMKNSGRSNKVARTSPINLGLNVNDLLKQKAISSSMHSLYGLGLGSQQQPQQQQQPAQPPPPPPPPQQQQQQKTSALSPNAKEFIFPNMQGQGSSTNGMFPGDSPLNLSPLQYSNAFDVFAAYGGLNEKSFVDGLNFSLNNMQYSNQQFQPVMAN [Y50N], the “effect of a mutation on the interaction” value is given as “with no effect”.
